Reference: US20110059159A1
Each block holds one substance with its values, some of them ahead of it.

Tests used:
[1] = molecular target: Chemokine Receptor 5 (CCR5) with an engineered 1D4 epitope at the C-terminal tail (UniProt P51681); test: sandwich ELISA, 2D7 capture, HRP-1D4 detection; CCR5 reconstituted into NABBs with POPC and zap1 (sample 7)
[2] = molecular target: Chemokine Receptor 5 (CCR5) with an engineered 1D4 epitope at the C-terminal tail (UniProt P51681); test: sandwich ELISA, 2D7 capture, HRP-1D4 detection; CCR5 solubilised in 1% (w/v) DDM
[3] = molecular target: Chemokine Receptor 5 (CCR5) with an engineered 1D4 epitope at the C-terminal tail (UniProt P51681); test: cell-based or functional assay
[4] = molecular target: holotransducin (Gt) (bovine) (UniProt P04695); test: cell-based or functional assay
Chain of holotransducin (Gt) (bovine) (P04695 2-350, chain 1 of 3): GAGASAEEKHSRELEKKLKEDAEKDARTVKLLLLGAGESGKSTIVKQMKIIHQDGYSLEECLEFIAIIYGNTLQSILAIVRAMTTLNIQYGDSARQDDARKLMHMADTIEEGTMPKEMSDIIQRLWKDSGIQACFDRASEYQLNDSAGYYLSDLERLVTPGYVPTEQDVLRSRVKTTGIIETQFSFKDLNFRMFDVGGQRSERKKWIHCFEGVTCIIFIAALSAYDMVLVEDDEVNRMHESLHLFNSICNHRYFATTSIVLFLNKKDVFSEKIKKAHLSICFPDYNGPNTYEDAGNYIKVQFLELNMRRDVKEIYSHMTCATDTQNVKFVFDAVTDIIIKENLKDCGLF
Chain of holotransducin (Gt) (bovine) (P62871 2-340, chain 2 of 3, further chain): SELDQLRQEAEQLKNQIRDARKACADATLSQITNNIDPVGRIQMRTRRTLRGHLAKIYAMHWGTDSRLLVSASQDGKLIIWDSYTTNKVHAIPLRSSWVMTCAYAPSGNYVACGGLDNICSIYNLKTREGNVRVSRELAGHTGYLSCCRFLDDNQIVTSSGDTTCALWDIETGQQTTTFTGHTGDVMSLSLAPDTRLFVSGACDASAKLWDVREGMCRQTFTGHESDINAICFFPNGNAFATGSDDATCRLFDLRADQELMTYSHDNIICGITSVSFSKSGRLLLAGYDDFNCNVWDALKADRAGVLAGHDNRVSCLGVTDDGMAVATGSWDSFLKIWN
Chain of holotransducin (Gt) (bovine) (P02698 2-71, chain 3 of 3, further chain): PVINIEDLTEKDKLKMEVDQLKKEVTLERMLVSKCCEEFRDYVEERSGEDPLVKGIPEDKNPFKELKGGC

ELISA signal relative to sample 1 (% of sample 1) [1]: 92
ELISA signal relative to sample 1 (% of sample 1) [2]: 65
Substance: 2D7 antibody

enhancement of B-GTPγS binding to the G protein [3]: < 30%
Substance: RANTES (from UniProt P13501 24-91) (ligand)

apparent pseudo first-order rate constant (kobs) of transducin activation, 1 rho-NABB [4]: 0.006 s⁻¹
apparent pseudo first-order rate constant (kobs) of transducin activation, 2rho-NABB [4]: 0.003 s⁻¹
Substance: rhodopsin incorporated in NABBs (from UniProt P02699 1-348) (receptor)
